T1: TNFR1 (Homo sapiens, UniProt P19438)
T1 chain: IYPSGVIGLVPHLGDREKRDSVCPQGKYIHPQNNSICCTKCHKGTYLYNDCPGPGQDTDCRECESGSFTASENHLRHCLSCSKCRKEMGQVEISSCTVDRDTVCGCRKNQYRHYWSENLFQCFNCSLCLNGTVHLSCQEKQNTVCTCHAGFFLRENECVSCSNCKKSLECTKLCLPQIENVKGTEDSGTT


Molecular target: T1, TNFR1
Test: yeast display SC50

Row | apparent Kd (screen) [nM] | Binder
1 | 7.78 | A28I (designed binder) MTLQELLREEALRRAEAEAFRYALELLIEKFPEQKEYLLDLAEEIESQIRSLSGVDVEDVRKFLDKEWAWVKELLAEHPAELAEVEAARAARLAELRAEVEAKVAA
2 | 0.539 | L96D (designed binder) MTLQELLREEALRRAEAEAFRYALELLAEKFPEQKEYLLDLAEEIESQIRSLSGVDVEDVRKFLDKEWAWVKELLAEHPAELAEVEAARAARLAEDRAEVEAKVAA
3 | 0.593 | R21K (designed binder) MTLQELLREEALRRAEAEAFKYALELLAEKFPEQKEYLLDLAEEIESQIRSLSGVDVEDVRKFLDKEWAWVKELLAEHPAELAEVEAARAARLAELRAEVEAKVAA
4 | 0.539 | E77W (designed binder) MTLQELLREEALRRAEAEAFRYALELLAEKFPEQKEYLLDLAEEIESQIRSLSGVDVEDVRKFLDKEWAWVKELLAWHPAELAEVEAARAARLAELRAEVEAKVAA
5 | 0.593 | V71M (designed binder) MTLQELLREEALRRAEAEAFRYALELLAEKFPEQKEYLLDLAEEIESQIRSLSGVDVEDVRKFLDKEWAWMKELLAEHPAELAEVEAARAARLAELRAEVEAKVAA
6 | 0.718 | A15R (designed binder) MTLQELLREEALRRREAEAFRYALELLAEKFPEQKEYLLDLAEEIESQIRSLSGVDVEDVRKFLDKEWAWVKELLAEHPAELAEVEAARAARLAELRAEVEAKVAA
7 | 2.48 | I49W (designed binder) MTLQELLREEALRRAEAEAFRYALELLAEKFPEQKEYLLDLAEEIESQWRSLSGVDVEDVRKFLDKEWAWVKELLAEHPAELAEVEAARAARLAELRAEVEAKVAA
8 | 0.539 | E95S (designed binder) MTLQELLREEALRRAEAEAFRYALELLAEKFPEQKEYLLDLAEEIESQIRSLSGVDVEDVRKFLDKEWAWVKELLAEHPAELAEVEAARAARLASLRAEVEAKVAA
9 | 0.49 | V57Y (designed binder) MTLQELLREEALRRAEAEAFRYALELLAEKFPEQKEYLLDLAEEIESQIRSLSGVDYEDVRKFLDKEWAWVKELLAEHPAELAEVEAARAARLAELRAEVEAKVAA
10 | 0.49 | E36Q (designed binder) MTLQELLREEALRRAEAEAFRYALELLAEKFPEQKQYLLDLAEEIESQIRSLSGVDVEDVRKFLDKEWAWVKELLAEHPAELAEVEAARAARLAELRAEVEAKVAA
11 | 0.869 | A105T (designed binder) MTLQELLREEALRRAEAEAFRYALELLAEKFPEQKEYLLDLAEEIESQIRSLSGVDVEDVRKFLDKEWAWVKELLAEHPAELAEVEAARAARLAELRAEVEAKVTA
12 | 0.49 | R50D (designed binder) MTLQELLREEALRRAEAEAFRYALELLAEKFPEQKEYLLDLAEEIESQIDSLSGVDVEDVRKFLDKEWAWVKELLAEHPAELAEVEAARAARLAELRAEVEAKVAA
13 | 0.539 | D65C (designed binder) MTLQELLREEALRRAEAEAFRYALELLAEKFPEQKEYLLDLAEEIESQIRSLSGVDVEDVRKFLCKEWAWVKELLAEHPAELAEVEAARAARLAELRAEVEAKVAA
14 | 1.05 | E16D (designed binder) MTLQELLREEALRRADAEAFRYALELLAEKFPEQKEYLLDLAEEIESQIRSLSGVDVEDVRKFLDKEWAWVKELLAEHPAELAEVEAARAARLAELRAEVEAKVAA
15 | 3.99 | L6W (designed binder) MTLQEWLREEALRRAEAEAFRYALELLAEKFPEQKEYLLDLAEEIESQIRSLSGVDVEDVRKFLDKEWAWVKELLAEHPAELAEVEAARAARLAELRAEVEAKVAA
16 | 0.539 | K72I (designed binder) MTLQELLREEALRRAEAEAFRYALELLAEKFPEQKEYLLDLAEEIESQIRSLSGVDVEDVRKFLDKEWAWVIELLAEHPAELAEVEAARAARLAELRAEVEAKVAA
17 | 0.956 | E86V (designed binder) MTLQELLREEALRRAEAEAFRYALELLAEKFPEQKEYLLDLAEEIESQIRSLSGVDVEDVRKFLDKEWAWVKELLAEHPAELAEVVAARAARLAELRAEVEAKVAA
18 | 0.49 | A98V (designed binder) MTLQELLREEALRRAEAEAFRYALELLAEKFPEQKEYLLDLAEEIESQIRSLSGVDVEDVRKFLDKEWAWVKELLAEHPAELAEVEAARAARLAELRVEVEAKVAA

Row | apparent Kd (screen) [nM] | Binder
19 | 0.539 | K103S (designed binder) MTLQELLREEALRRAEAEAFRYALELLAEKFPEQKEYLLDLAEEIESQIRSLSGVDVEDVRKFLDKEWAWVKELLAEHPAELAEVEAARAARLAELRAEVEASVAA
20 | 0.593 | F20L (designed binder) MTLQELLREEALRRAEAEALRYALELLAEKFPEQKEYLLDLAEEIESQIRSLSGVDVEDVRKFLDKEWAWVKELLAEHPAELAEVEAARAARLAELRAEVEAKVAA
21 | 0.593 | W70F (designed binder) MTLQELLREEALRRAEAEAFRYALELLAEKFPEQKEYLLDLAEEIESQIRSLSGVDVEDVRKFLDKEWAFVKELLAEHPAELAEVEAARAARLAELRAEVEAKVAA
22 | 0.653 | H78Y (designed binder) MTLQELLREEALRRAEAEAFRYALELLAEKFPEQKEYLLDLAEEIESQIRSLSGVDVEDVRKFLDKEWAWVKELLAEYPAELAEVEAARAARLAELRAEVEAKVAA
23 | 0.653 | D56N (designed binder) MTLQELLREEALRRAEAEAFRYALELLAEKFPEQKEYLLDLAEEIESQIRSLSGVNVEDVRKFLDKEWAWVKELLAEHPAELAEVEAARAARLAELRAEVEAKVAA
24 | 4.83 | L3T (designed binder) MTTQELLREEALRRAEAEAFRYALELLAEKFPEQKEYLLDLAEEIESQIRSLSGVDVEDVRKFLDKEWAWVKELLAEHPAELAEVEAARAARLAELRAEVEAKVAA
25 | 0.718 | R21V (designed binder) MTLQELLREEALRRAEAEAFVYALELLAEKFPEQKEYLLDLAEEIESQIRSLSGVDVEDVRKFLDKEWAWVKELLAEHPAELAEVEAARAARLAELRAEVEAKVAA
26 | 0.49 | L26T (designed binder) MTLQELLREEALRRAEAEAFRYALETLAEKFPEQKEYLLDLAEEIESQIRSLSGVDVEDVRKFLDKEWAWVKELLAEHPAELAEVEAARAARLAELRAEVEAKVAA
27 | 0.277 | A17Q (designed binder) MTLQELLREEALRRAEQEAFRYALELLAEKFPEQKEYLLDLAEEIESQIRSLSGVDVEDVRKFLDKEWAWVKELLAEHPAELAEVEAARAARLAELRAEVEAKVAA
28 | 13.8 | G54D (designed binder) MTLQELLREEALRRAEAEAFRYALELLAEKFPEQKEYLLDLAEEIESQIRSLSDVDVEDVRKFLDKEWAWVKELLAEHPAELAEVEAARAARLAELRAEVEAKVAA
29 | 0.718 | L41M (designed binder) MTLQELLREEALRRAEAEAFRYALELLAEKFPEQKEYLLDMAEEIESQIRSLSGVDVEDVRKFLDKEWAWVKELLAEHPAELAEVEAARAARLAELRAEVEAKVAA
30 | 0.593 | V100P (designed binder) MTLQELLREEALRRAEAEAFRYALELLAEKFPEQKEYLLDLAEEIESQIRSLSGVDVEDVRKFLDKEWAWVKELLAEHPAELAEVEAARAARLAELRAEPEAKVAA
31 | 1.16 | R13N (designed binder) MTLQELLREEALNRAEAEAFRYALELLAEKFPEQKEYLLDLAEEIESQIRSLSGVDVEDVRKFLDKEWAWVKELLAEHPAELAEVEAARAARLAELRAEVEAKVAA
32 | 0.593 | E16L (designed binder) MTLQELLREEALRRALAEAFRYALELLAEKFPEQKEYLLDLAEEIESQIRSLSGVDVEDVRKFLDKEWAWVKELLAEHPAELAEVEAARAARLAELRAEVEAKVAA
33 | 0.539 | L12I (designed binder) MTLQELLREEAIRRAEAEAFRYALELLAEKFPEQKEYLLDLAEEIESQIRSLSGVDVEDVRKFLDKEWAWVKELLAEHPAELAEVEAARAARLAELRAEVEAKVAA
34 | 0.718 | M1C (designed binder) CTLQELLREEALRRAEAEAFRYALELLAEKFPEQKEYLLDLAEEIESQIRSLSGVDVEDVRKFLDKEWAWVKELLAEHPAELAEVEAARAARLAELRAEVEAKVAA
35 | 1.16 | E44P (designed binder) MTLQELLREEALRRAEAEAFRYALELLAEKFPEQKEYLLDLAEPIESQIRSLSGVDVEDVRKFLDKEWAWVKELLAEHPAELAEVEAARAARLAELRAEVEAKVAA

From article PMC12416549 (2024)
